{"source": "patent US20070172470A1", "about": "“Phosphatase regulation of nucleic acid transcription” (The Regents of the University of California, priority 2003, published 2007)", "molecules": {"B1": {"name": "SCP2: small CTD phosphatase-2, SEQ ID NO:4 (protein, listed as Homo sapiens)", "chain": "MEHGSIITQARREDALVLTKQGLVSKSSPKKPRGRNIFKALFCCFRAQHVGQSSSSTELAAYKEEANTIAKSDLLQCLQYQFYQIPGTCLLPEVTEEDQGRICVVIDLDETLVHSSFKPINNADFIVPIEIEGTTHQVYVLKRPYVDEFLRRMGELFECVLFTASLAKYADPVTDLLDRCGVFRARLFRESCVFHQGCYVKDLSRLGRDLRKTLILDNSPASYIFHPENAVPVQSWFDDMADTELLNLIPIFEELSGAEDVYTSLGAAAGPLACPASKRRPSQ"}, "B2": {"name": "GST-SCP1 214: GST fusion of the 214 aa spliced variant of SCP1, SEQ ID NO:8 (protein)", "chain": "MMGRPCLLTAGRPCLWRRMAPSLRQTPVQYLLPEAKAQDSDKICVVIDLDETLVHSSFKPVNNADFIIPVEIDGVVHQVYVLKRPHVDEFLQRMGELFECVLFTASLAKYADPVADLLDKWGAFRARLFRESCVFHRGNYVKDLSRLGRDLRRVLILDNSPASYVFHPDNAVPVASWFDNMSDTELHDLLPFFEQLSRVDDVYSVLRQPRPGS", "modifications": "left off: a dimerising Fc or GST"}, "B3": {"name": "FCP1: recombinant CTD phosphatase FCP1, class C phosphatase with BRCT domain (protein)", "chain": "MEVPAAGRVPAEGAPTAAVAEVRCPGPAPLRLLEWRVAAGAAVRIGSVLAVFEAAASAQSSGASQSRVASGGCVRPARPERRLRSERAGVVRELCAQPGQVVAPGAVLVRLEGCSHPVVMKGLCAECGQDLTQLQSKNGKQQVPLSTATVSMVHSVPELMVSSEQAEQLGREDQQRLHRNRKLVLMVDLDQTLIHTTEQHCQQMSNKGIFHFQLGRGEPMLHTRLRPHCKDFLEKIAKLYELHVFTFGSRLYAHTIAGFLDPEKKLFSHRILSRDECIDPFSKTGNLRNLFPCGDSMVCIIDDREDVWKFAPNLITVKKYVYFQGTGDMNAPPGSRESQTRKKVNHSRGTEVSEPSPPVRDPEGVTQAPGVEPSNGLEKPARELNGSEAATPRDSPRPGKPDERDIWPPAQAPTSSQELAGAPEPQGSCAQGGRVAPGQRPAQGATGTDLDFDLSSDSESSSESEGTKSSSSASDGESEGKRGRQKPKAAPEGAGALAQGSSLEPGRPAAPSLPGEAEPGAHAPDKEPELGGQEEGERDGLCGLGNGCADRKEAETESQNSELSGVTAGESLDQSMEEEEEEDTDEDDHLIYLEEILVRVHTDYYAKYDRYLNKEIEEAPDIRKIVPELKSKVLADVAIIFSGLHPTNFPIEKTREHYHATALGAKILTRLVLSPDAPDRATHLIAARAGTEKVLQAQECGHLHVVNPDWLWSCLERWDKVEEQLFPLRDDHTKAQRENSPAAFPDREGVPPTALFHPMPVLPKAQPGPEVRIYDSNTGKLIRTGARGPPAPSSSLPIRQEPSSFRAVPPPQPQMFGEELPDAQDGEQPGPSRRKRQPSMSETMPLYTLCKEDLESMDKEVDDILGEGSDDSDSEKRRPEEQEEEPQPRKPGTRRERTLGAPASSERSAAGGRGPRGHKRKLNEEDAASESSRESSNEDEGSSSEADEMAKALEAELNDLM"}, "B4": {"name": "REST/NRSF: RE-1 silencing transcription factor / Neuron-Restrictive Silencer Factor (protein, UniProt Q13127 1-1097, looked up)", "RE1-silencing transcription …": "MATQVMGQSSGGGGLFTSSGNIGMALPNDMYDLHDLSKAELAAPQLIMLANVALTGEVNGSCCDYLVGEERQMAELMPVGDNNFSDSEEGEGLEESADIKGEPHGLENMELRSLELSVVEPQPVFEASGAPDIYSSNKDLPPETPGAEDKGKSSKTKPFRCKPCQYEAESEEQFVHHIRVHSAKKFFVEESAEKQAKARESGSSTAEEGDFSKGPIRCDRCGYNTNRYDHYTAHLKHHTRAGDNERVYKCIICTYTTVSEYHWRKHLRNHFPRKVYTCGKCNYFSDRKNNYVQHVRTHTGERPYKCELCPYSSSQKTHLTRHMRTHSGEKPFKCDQCSYVASNQHEVTRHARQVHNGPKPLNCPHCDYKTADRSNFKKHVELHVNPRQFNCPVCDYAASKKCNLQYHFKSKHPTCPNKTMDVSKVKLKKTKKREADLPDNITNEKTEIEQTKIKGDVAGKKNEKSVKAEKRDVSKEKKPSNNVSVIQVTTRTRKSVTEVKEMDVHTGSNSEKFSKTKKSKRKLEVDSHSLHGPVNDEESSTKKKKKVESKSKNNSQEVPKGDSKVEENKKQNTCMKKSTKKKTLKNKSSKKSSKPPQKEPVEKGSAQMDPPQMGPAPTEAVQKGPVQVEPPPPMEHAQMEGAQIRPAPDEPVQMEVVQEGPAQKELLPPVEPAQMVGAQIVLAHMELPPPMETAQTEVAQMGPAPMEPAQMEVAQVESAPMQVVQKEPVQMELSPPMEVVQKEPVQIELSPPMEVVQKEPVKIELSPPIEVVQKEPVQMELSPPMGVVQKEPAQREPPPPREPPLHMEPISKKPPLRKDKKEKSNMQSERARKEQVLIEVGLVPVKDSWLLKESVSTEDLSPPSPPLPKENLREEASGDQKLLNTGEGNKEAPLQKVGAEEADESLPGLAANINESTHISSSGQNLNTPEGETLNGKHQTDSIVCEMKMDTDQNTRENLTGINSTVEEPVSPMLPPSAVEEREAVSKTALASPPATMAANESQEIDEDEGIHSHEGSDLSDNMSEGSDDSGLHGARPVPQESSRKNAKEALAVKAAKGDFVCIFCDRSFRKGKDYSKHLNRHLVNVYYLEEAAQGQE"}}, "key": {"[1]": {"biological_target": "T1, RNAP IIO (Bos taurus, UniProt G3MZY8)", "T1 construct": "Calf thymus RNAP IIA was purified; from tissue; host or cells: calf thymus", "assay": "CTD phosphatase assay with RNAP IIO as substrate", "assay_type": "biochemical, calf", "procedure": "(§1) FIGS. 2C and 2D show a CTD phosphatase assay of FCP1 and SCP1 on GST-CTDo and RNAP IIO prepared by MAPK2/ERK2. Increasing amounts of FCP1 or GST-SCP1 214 were assayed in the presence of 75 fmol GST-CTDo (lanes 1-6), 75 fmol RNAP IIO (lanes 7-12), or 75 fmol GST-CTDo and 75. fmol RNAP IIO (lanes 13-18). Both GST-CTDo and RNAP IIO substrates were prepared by the in vitro phosphorylation of CKII-labeled GST-CTDa or RNAP IIA by MAPK2/ERK2. All reactions were carried out in the presence of 7 pmol RAP74. CTD dephosphorylation of both GST-CTDo and RNAP IIO is shown by the increase in mobility of GST-CTDo to GST-CTDa and subunit IIo to IIa, respectively. The difference in the intensity of radiolabeled GST-CTDoand that of radiolabeled subunit IIo is not a reflection of a difference in the amount of substrates present, but of the higher efficiency with which CKII incorporates radiolabeled phosphates onto the most C-terminal serine of GST-CTDa compared to subunit. IIa.\nIncreasing amounts of GST-SCP1 214 were assayed in the presence of 3.7 fmol RNAP IIO prepared by CTDK1/CTDK2, TFIIH, P-TEFb, MAPK2/ERK2 and Cdc2 kinase. All reactions were carried out in-the presence of 7 pmol. RAP74. CTD dephosphorylation of RNAP IIO isozymes. by qSTSCP1 214 is shown by an increase in mobility of subunit IIo to that of IIa. The results are summarized in the graph showing the percent of RNAP IIO remaining as a function of increasing SCP1 concentrations.\nPreparation and Purification of ^32P-RNAP IIO Isozymess and ^32P-GST-CTDo: Calf thymus RNAP IIA was purified by the method of Hodo and Blatti (30) with modifications as described by Kang and Dahmus (31). Specific isozymes of ^32p-labeled RNAP IIO were prepared by phosphorylation at the most C-terminal serine (CKII site) in the largest subunit of purified RNAP IIA with recombinant CKII and […], followed by CTD phosphorylation in the presence of 2 mM ATP with either purified CTDK1/CTDK2, TFIIH, P-TEFb, recombinant MAPK2/ERK2 or recombinant Cdc2 kinase. The RNAP IIO isozymes were individually purified over a DE53 column with a step elution of 500 mM KCl (28). Because only the most C-terminal serine is labeled with ^32p and lies outside. the consensus repeat, dephosphorylation by CTD phosphatase results in an electrophoretic mobility shift in SDS-PAGE of subunit IIo to the position of subunit IIa without the loss of label. Similarly, ^32P-labeled GST-CTDo was prepared from GST-CTDa by CKII followed by MAPK2/ERK2. GST-CTDo was purified over a glutathione-agarose column with a step elution of 15 mM glutathione.\nCTD phosphatase assays utilizing RNAP IIO and GST-CTDo as substrate were performed as described previously (32) with minor modifications. Reactions were performed in 20 μl of CTD phosphatase buffer (50 mM Tris-HCl, pH 7.9, 10 mM MgCl2, 20% glycerol, 0.025% Tween 80, 0.1 mM EDTA, 5 mM DTT) in the presence of 20 mM KCl. Each reaction contained specified amounts of GST-CTDo and/or RNAP IIO and was carried out in the presence of 7 pmol RAP74. Reactions were initiated by the addition of FCP1 or SCP1 and incubated at 30° C. for 30 minutes. Assays were terminated by the addition of 5× Laemmli buffer, and RNAP II subunits and GST-CTD were resolved on a 5% SDS-PAGE gel. The gel images were developed by autoradiography and scanned by Molecular Dynamics Image Scanner Storm 860 in the phosphor screen mode. Data were quantitatively analyzed by ImageQuant software."}, "[2]": {"biological_target": "T2, GST-CTDo (Homo sapiens, UniProt P24928)", "T2 construct": "made in house", "T2 sequence (P24928 1593-1960 A1835T, one chain of several)": "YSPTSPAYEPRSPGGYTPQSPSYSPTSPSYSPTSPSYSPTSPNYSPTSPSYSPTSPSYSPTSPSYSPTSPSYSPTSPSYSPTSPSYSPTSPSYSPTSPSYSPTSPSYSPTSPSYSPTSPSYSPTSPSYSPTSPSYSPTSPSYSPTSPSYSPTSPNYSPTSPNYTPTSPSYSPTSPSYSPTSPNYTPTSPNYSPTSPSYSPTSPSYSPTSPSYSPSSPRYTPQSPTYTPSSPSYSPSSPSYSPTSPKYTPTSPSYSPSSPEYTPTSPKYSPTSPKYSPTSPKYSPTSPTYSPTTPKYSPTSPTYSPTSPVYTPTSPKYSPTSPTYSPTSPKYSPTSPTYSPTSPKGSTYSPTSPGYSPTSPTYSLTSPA", "assay": "CTD phosphatase assay with GST-CTDo (rCTDo) as substrate", "assay_type": "biochemical", "procedure": "as §1\nPreparation and Purification of ^32P-RNAP IIO Isozymess and ^32P-GST-CTDo: Calf thymus RNAP IIA was purified by the method of Hodo and Blatti (30) with modifications as described by Kang and Dahmus (31). […]\nCTD phosphatase assays utilizing RNAP IIO and GST-CTDo as substrate were performed as described previously (32) with minor modifications. […] Data were quantitatively analyzed by ImageQuant software."}, "[3]": {"test_system": "28 aa CTD heptad repeat peptide with Ser 5 phosphate or Ser 2 phosphate", "assay": "CTD phosphopeptide phosphatase assay (malachite green)", "assay_type": "biochemical", "conditions": "25 μM phosphopeptide, 60 mins at 37° C.", "procedure": "The indicated amounts of. SCP1 were incubated with the phosphopeptide substrate and phosphate released was measured as described infra.\nN-terminal biotinylated CTD phosphopeptides, comprised of 4 tandem repeats YSPTSPS and containing phosphoserine at position 2 or position 5, were synthesized (Alpha Diagnostics, San Antonio, Tex.). Phosphatase reaction mixtures (50 μl) containing 50 mM Tris-acetate, pH 5.5, 10 mM MgCl2, 0.5 mM DTT, 10% glycerol, 25 μM of phosphopeptide and wild type or mutant SCP1 were incubated for 60 mins at 37° C. The reactions were quenched by adding 0.5 ml of malachite green (Biomol). Phosphate release was measured at A620 and quantified relative to a phosphate standard curve."}, "[4]": {"test_system": "P19 mouse embryonic stem cells", "assay": "Neuronal differentiation of P19 cells", "assay_type": "cell-based", "conditions": "clonal P19 line, retinoic acid, selective medium", "procedure": "P19 cells, C, differentiated GFP expressing P19 cells; D, differentiated SCP1-expressing P19 cells; F, differentiated REST/NRSF-expressing P19 cells. Numbers of NLC per field are shown. *p=0.001 compared to WT 19 cells; **p=0.008 compared to WT P19 cell using student's t-test.\nP19 stably expressing REST/NRSF.\nThese cell lines were maintained in α-MEM/10%FBS with […] G418. To induce neuronal differentiation, P19 cells were allowed to aggregate in bacterial grade petri-dishes (Fisher) at a seeding density of 1×10^5cells/ml in the presence of 1×10^−6M all-trans retinoic acid. After 3 days of aggregation, cells were dissociated into single cells by 0.05% trypsin-0.53 mM EDTA (Gibco). Trypsin was removed by centrifugation and the cells were plated in 6 cm tissue culture dishes (Nunc). at a density of 1×10^5 cells/cm^2 in Neurobasal medium/N2 supplement (Invitrogen) in the presence or absence of 1 μg/ml fibronectin (Invitrogen). The cells were cultured for 5 days after which average cell numbers/field were determined. Cells were either lysed to prepare total RNA (Rneasy kit, Qiagen) or stained with TuJ1 antibody (Babco).\nFor immunostaining, cells were fixed for 10 mins with 4% paraformaldehyde. TuJ1 antibody was used at 1:2000 and secondary antibody used was FITC-conjuagated anti-mouse (1:3000)."}}}
{"molecule": "B1", "values": [{"measurement": "CTD phosphatase activity when RNAP IIO is utilized as substrate", "setting": "[1]; compared with SCP1", "result": "comparable CTD phosphatase activity"}]}
{"molecule": "B2", "values": [{"measurement": "dephosphorylation of both RNAP IIO and GST-CTDo", "setting": "[2]; substrates prepared by MAPK2/ERK2, 75 fmol each, 7 pmol RAP74", "result": "comparable efficiency"}]}
{"molecule": "B3", "values": [{"measurement": "dephosphorylation of Ser 5 versus Ser 2 phosphopeptide", "setting": "[3]", "result": "did not act on either phosphopeptide"}, {"measurement": "concentration without dephosphorylation of rCTDo, relative to that required to dephosphorylate RNAP IIO", "setting": "[2]", "result": "> 100", "unit": "times"}, {"measurement": "dephosphorylation of RNAP IIO prepared with Cdc2 kinase", "setting": "[1]; 3.7 fmol RNAP IIO, 7 pmol RAP74", "result": "efficiently dephosphorylates"}]}
{"molecule": "B4", "values": [{"measurement": "effect on neuronal differentiation", "setting": "[4]", "result": "prevented neuronal differentiation"}]}
